Results on one substance are retold here after patent US20030199016.

The subject of data set [1] is CHO plasminogen activator.
In data set [2] the test system is ACTIVASE recombinant human tissue-type plasminogen activator (r-tPA).
In data set [3] the test system is TNK-tPA.
Sequence of TNK-tPA (chain, as listed by the source): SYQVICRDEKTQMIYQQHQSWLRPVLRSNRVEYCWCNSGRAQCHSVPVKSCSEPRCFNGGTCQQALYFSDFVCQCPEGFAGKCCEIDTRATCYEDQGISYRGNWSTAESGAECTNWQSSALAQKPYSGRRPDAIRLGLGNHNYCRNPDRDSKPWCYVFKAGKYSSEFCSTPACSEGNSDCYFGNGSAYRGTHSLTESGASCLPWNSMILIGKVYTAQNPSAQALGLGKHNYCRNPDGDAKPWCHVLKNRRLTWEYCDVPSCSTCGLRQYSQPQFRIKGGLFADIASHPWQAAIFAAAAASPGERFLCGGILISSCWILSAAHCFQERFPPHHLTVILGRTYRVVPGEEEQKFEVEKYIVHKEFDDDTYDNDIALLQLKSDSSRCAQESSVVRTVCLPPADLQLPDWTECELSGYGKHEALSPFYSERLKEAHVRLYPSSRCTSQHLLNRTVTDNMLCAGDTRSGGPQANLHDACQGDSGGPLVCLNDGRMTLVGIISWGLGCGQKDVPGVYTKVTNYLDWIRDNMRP

Sequence of ACTIVASE recombinant human tissue-type plasminogen activator (r-tPA) (chain, as listed by the source): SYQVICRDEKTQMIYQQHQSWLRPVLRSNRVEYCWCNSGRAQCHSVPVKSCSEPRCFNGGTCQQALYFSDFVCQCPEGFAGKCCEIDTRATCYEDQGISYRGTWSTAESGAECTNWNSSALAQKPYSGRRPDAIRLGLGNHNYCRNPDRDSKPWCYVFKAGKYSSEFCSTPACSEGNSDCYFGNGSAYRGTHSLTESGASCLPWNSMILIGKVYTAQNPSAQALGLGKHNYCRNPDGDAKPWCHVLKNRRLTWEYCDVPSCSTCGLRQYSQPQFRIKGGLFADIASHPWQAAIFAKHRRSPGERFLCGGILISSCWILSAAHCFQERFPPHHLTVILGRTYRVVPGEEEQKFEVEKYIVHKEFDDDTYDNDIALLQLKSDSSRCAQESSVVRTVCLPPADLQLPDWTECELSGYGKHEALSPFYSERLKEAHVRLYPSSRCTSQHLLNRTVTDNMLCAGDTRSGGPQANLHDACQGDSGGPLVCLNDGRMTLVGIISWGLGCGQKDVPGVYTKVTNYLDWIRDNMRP
Sequence of CHO plasminogen activator (chain, as listed by the source): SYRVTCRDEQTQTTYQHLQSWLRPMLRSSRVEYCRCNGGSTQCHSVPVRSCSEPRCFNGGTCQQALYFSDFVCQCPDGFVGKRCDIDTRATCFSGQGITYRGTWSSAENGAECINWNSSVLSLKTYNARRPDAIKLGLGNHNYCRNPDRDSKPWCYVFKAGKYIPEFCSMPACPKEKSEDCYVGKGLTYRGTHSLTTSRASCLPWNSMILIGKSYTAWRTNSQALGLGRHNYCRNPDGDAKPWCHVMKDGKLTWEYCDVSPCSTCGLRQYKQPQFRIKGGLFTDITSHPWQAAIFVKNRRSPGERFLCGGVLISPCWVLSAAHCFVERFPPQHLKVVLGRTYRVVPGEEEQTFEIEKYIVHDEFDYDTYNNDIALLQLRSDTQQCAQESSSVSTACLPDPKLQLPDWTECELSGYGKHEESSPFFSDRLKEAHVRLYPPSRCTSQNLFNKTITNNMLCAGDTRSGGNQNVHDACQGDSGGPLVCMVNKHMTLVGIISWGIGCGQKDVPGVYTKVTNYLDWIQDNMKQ

As to Plasminogen, the “conversion of single-chain form to two-chain form (reversed-phase HPLC after plasmin and DTT/urea treatment)” value in data set [1], in data set [2] and in data set [3] was “incubation with plasminogen converts the single-chain form of the three plasminogen activators to the two-chain form” in each case.
